The values below come from patent US12077763B2, “RNA-based control of powdery mildew” (Greenlight Biosciences, Inc., priority 2021, dated 2024).

The test system of data set [1] is E. necator. The data set is described as follows: Leaf disc assay, wet inoculum (conidial suspension), disease severity by automated phenotyping (Example 1).
The subject of data set [2] is E. necator. The experiment in a line: Leaf disc assay, dry inoculum (settling tower), decrease in disease severity / hyphal growth (Example 2). Conditions: decrease in disease severity (hyphal growth) relative to untreated control, value ± SE.
Data set [3] deals with E. necator. The experiment in a line: Greenhouse trial, powdery mildew on grapes, AUDPC of disease incidence and severity (Example 4). Format: in vivo, E. necator in grapes. Here is the method:
A greenhouse trial was performed to evaluate the efficacy of ES43 dsRNA for controlling E. necator in grapes compared with commercial fungicides (Luna Experience/Pristina) and biofungicides (Regalia Biofungicide/Double Nickel).
Disease incidence was calculated based on the total number of leaves on the plant infected with powdery mildew, out of number of leaves present. Disease severity was calculated based on the percent (%) leaf surface infected overall for each plant. Area under the disease progress curve (AUDPC) was then calculated throughout the entire trial period (FIGS. 5 and 6).

In data set [4] the test system is E. necator. The data set is described as follows: Field trial, natural infestation on Chardonnay grapes, leaf disease incidence (Example 5). Format: in vivo, E. necator on Chardonnay grapes. The settings on record: FIG. 7. On the procedure:
A field trial was conducted in ACDS Research vineyard (Dundee, New York) with natural disease infestation on grapes. The trial was set up in four rows (180 ft^2) of Chardonnay grapes, with plots consisting of four vines. The trial included 11 treatments (Table 5), each replicated four times. The grower spray program from budbreak through pre-bloom consisted of sulfur, and trial applications were initiated at bloom. Eight to fifteen applications of ES43 (6.25, 25, 50 and 100 g Ai/ha) were compared with Regalia (470 g Ai/ha) and DoubleNickel (10 billion Cfu/ml), Pristine (333 g Ai/ha) Rally 40 WSP (140 g Ai/ha) and Luna Experience (250 g Ai/ha). Disease incidence, total number of leaves infected out of number of leaves present on several branches, Weekly assessments was performed 1 day before ES43 applications. Data was collected one week after the last application for all treatments at the close of the experiment.
Disease incidence was calculated based on number of leaves infected with powdery mildew out of 20 total leaves.

In the next data set the test system is Cyp51 transcripts. The experiment in a line: Gene specific qRT-PCR of ES43 (Cyp51) transcripts in leaf discs (Example 3). Format: in vivo, E. necator. On the procedure:
FIG. 3. Gene specific qRT-PCR analysis of ES43 (Cyp51) transcripts at 6-dpi in leaf discs. Two housekeeping genes (GDP1 and TEF1) were used as endogenous references to examine the expression of Cyp51. Gene expression was normalized to the untreated control. Statistical significance at p<0.01, Mann-Whitney U test.
qRT-PCR was performed to validate the effect of exogenous dsRNA on the expression of selected targeted genes for which activity of dsRNA had been shown by leaf assay (as described in Example 2). Samples were treated with dsRNA, inoculated after 24 hours and six leaf discs per treatment were collected at six-days post inoculation (dpi) for further analysis.
On the technique in general: Real-time PCR tracks product formation cycle by cycle.

B1: ES43: 497 bp Cyp51-dsRNA, trigger SEQ ID NO 108; gene target Cytochrome P450 (nucleic acid)
DNA: TCTTACCATGAAGCGTTCCATTCCTATGTAACAATAATACAAAATGAAGTAGAGGCATATATAAACAATTGCGTTAGCTTTCAGGGTGAGAGTGGCACAGTAAACATCTCAAAAGTTATGGCGGAAATCACTATATATACTGCTTCACATGCCTTACAAGGAGAAGAGGTCCGTGAGAATTTTGACTCATCTTTTGCCGCTCTTTATCATGATCTTGATATGGGATTTACACCGATCAACTTTACATTTTACTGGGCACCTCTACCTTGGAATCGTGCTCGTGATCATGCCCAAAGAACTGTTGCTAGGACTTATATGAATATAATCCAAGCTCGTAGAGAAGAGAAAAGAAGCGGTGAGAATAAGCATGATATAATGTGGGAGTTGATGCGTTCCACTTATAAAGACGGGACTCCGGTACCTGATCGAGAGATAGCGCATATGATGATAGCCCTTCTGATGGCTGGACAACACTCTTCGTCATCCACGAGCTCATG
For B1, the “LSMeans difference (Dunnett's), disease severity” value with E. necator [1] (Run1, ES43 10 ppm vs negative control GS4 25 ppm) is −61.5000; in the data set with E. necator [1] (Run1, ES43 25 ppm vs negative control GS4 25 ppm), −49.1667; in the data set with E. necator [1] (Run 2, ES43 10 ppm vs negative control GS4 25 ppm), 10.0000; in the data set with E. necator [1] (Run 2, ES43 25 ppm vs negative control GS4 25 ppm), −26.3750; with E. necator [1] (Run 3, ES43 10 ppm vs negative control GS145 25 ppm) it was −24.0000; with E. necator [1] (Run 3, ES43 25 ppm vs negative control GS145 25 ppm) it was −17.0625. The “powdery mildew development on leaf disks” value in the data set on E. necator [1] (nine-dpi, 10 and 25 ppm, compared to untreated and non-dsRNA targets) is recorded as “significant decrease of powdery mildew development”. Moreover, in the data set on E. necator [1] (three individual runs combined, 10 and 25 ppm, vs controls GS145 or GS4 (p<0.01)), the “fungal growth determined by disease severity (FIG. 1)” value is on record as “Significant decrease of fungal growth”. Also, in the data set on E. necator [2] (time point 1 (untreated control hyphal growth ≥50%)), the “% decrease =/− SE TP1” value was found to be 41 ± 3%. Further, the “% decrease =/− SE TP2” value with E. necator [2] (time point 2) is given as 28 ± 5%. Further, the “AUDPC based on disease severity vs. untreated control” value in the data set with E. necator [3] (FIG. 6) is given as “significantly decreased severity”. For the same molecule, the “reduction in disease incidence, twice per week vs once per week” value with E. necator [3] (twice per week applications at the same rate, numerically) is recorded as “greater reduction in disease incidence compared to once per week applications at the same rate”. The “AUDPC based on disease severity, compared with commercial fungicide and biofungicides” value in the data set on E. necator [3] (weekly and twice-per-week spray interval, FIG. 6) was “performed similarly to commercial fungicide and biofungicides”. Besides, the “AUDPC based on disease incidence” value in the data set on E. necator [3] (weekly spray interval, all rates (6.25-100 g ai/ha), FIG. 5) was “reduced powdery mildew AUDPC incidence with all rates similar to or better than the biofungicide standard”. Moreover, the leaf disease incidence entry in the data set with E. necator [4] (6.25 g Ai/ha, 7-day and twice a week (3/4-day), 57 days after initial treatments) is “significantly decreased disease incidence”; in the data set with E. necator [4] (50 g Ai/ha, compared to untreated control), “decreased incidence compared to untreated control”. Moreover, in the data set on Cyp51 transcripts (6-dpi, compared to untreated control, FIG. 3), the “reduction of relative amounts of ES43 (Cyp51) transcripts” value was “up to 70%”. Moreover, in the data set with Cyp51 transcripts (qRT-PCR, six-days post inoculation), the “gene silencing in E. necator by sprayed dsRNA” value is reported as “Induced Gene Silencing”.
